Results reported in PMC4010901 (The Journal of Experimental Medicine, 2014).
Read-outs that look alike come from different tables or passages of the source. One block for each binder: values may come before it.

Tests used:
[1] = biological target: T1, recombinant mRGMb-HIS (R&D Systems) (mouse, UniProt Q7TQ33 49-415); assay: ELISA
T1 sequence (looked up): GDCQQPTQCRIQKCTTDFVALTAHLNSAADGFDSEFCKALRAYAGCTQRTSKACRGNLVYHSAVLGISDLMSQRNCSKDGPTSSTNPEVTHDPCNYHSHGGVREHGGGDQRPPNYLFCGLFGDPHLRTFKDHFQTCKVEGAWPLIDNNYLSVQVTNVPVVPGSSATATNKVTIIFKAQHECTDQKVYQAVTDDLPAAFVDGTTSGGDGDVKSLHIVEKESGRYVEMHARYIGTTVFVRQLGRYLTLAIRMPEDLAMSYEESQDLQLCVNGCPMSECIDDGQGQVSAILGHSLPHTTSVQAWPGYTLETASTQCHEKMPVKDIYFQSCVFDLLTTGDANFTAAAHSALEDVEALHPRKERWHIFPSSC

[2] = biological target: T2, recombinant hRGMb-HIS (R&D Systems) (human, UniProt Q6NW40 46-413); assay: ELISA
T2 sequence (looked up): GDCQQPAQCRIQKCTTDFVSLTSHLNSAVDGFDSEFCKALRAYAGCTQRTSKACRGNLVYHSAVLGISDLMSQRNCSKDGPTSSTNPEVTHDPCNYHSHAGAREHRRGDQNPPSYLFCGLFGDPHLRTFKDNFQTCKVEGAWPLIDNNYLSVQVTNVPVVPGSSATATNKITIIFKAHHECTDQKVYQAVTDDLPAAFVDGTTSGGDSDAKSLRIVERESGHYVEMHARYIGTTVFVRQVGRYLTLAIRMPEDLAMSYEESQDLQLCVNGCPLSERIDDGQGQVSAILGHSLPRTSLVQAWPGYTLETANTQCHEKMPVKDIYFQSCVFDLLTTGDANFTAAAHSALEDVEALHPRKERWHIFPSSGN

[3] = biological target: T2, recombinant hRGMb-HIS (R&D Systems); assay: ELISA; remark: listed apart in the source
[4] = biological target: T3, RGMb (R&D Systems) immobilised for Biacore ( (mouse and human RGMb-HIS …, UniProt Q7TQ33 49-415)); assay: SPR
T3 sequence (looked up): T1 sequence (looked up)

[5] = biological target: T1, recombinant mRGMb-HIS (R&D Systems); assay: ELISA; remark: listed apart in the source
[6] = biological target: T1, recombinant mRGMb-HIS (R&D Systems); assay: ELISA; remark: listed apart in the source

binding result [1]: binds | binding result [2]: binds
B1: hPD-L2-mIgG2a fusion protein (Fc fusion, human, UniProt Q9BQ51 20-220, looked up)
chain: LFTVTVPKELYIIEHGSNVTLECNFDTGSHVNLGAITASLQKVENDTSPHRERATLLEEQLPLGKASFHIPQVQVRDEGQYQCIIIYGVAWDYKYLTLKVKASYRKINTHILKVPETDEVELTCQATGYPLAEVSWPNVSVPANTSHSRTPEGLYQVTSVLRLKPPPGRNFSCVFWNTHVRELTLASIDLQSQMEPRTHPT

binding result [3]: binds
B2: mPD-L2-hIgG1/IgA fusion protein (Fc fusion, mouse, UniProt Q9WUL5 20-221, looked up)
chain: LFTVTAPKEVYTVDVGSSVSLECDFDRRECTELEGIRASLQKVENDTSLQSERATLLEEQLPLGKALFHIPSVQVRDSGQYRCLVICGAAWDYKYLTVKVKASYMRIDTRILEVPGTGEVQLTCQARGYPLAEVSWQNVSVPANTSHIRTPEGLYQVTSVLRLKPQPSRNFSCMFWNAHMKELTSAIIDPLSRMEPKVPRTW

Kd [4]: 48.5 nM
B3: mPD-L2-hIgG (R&D Systems) (Fc fusion, mouse, UniProt Q9WUL5 20-221, looked up)
chain: B2 chain

binding result [5]: binds
B4: recombinant mouse BMP-4 (R&D Systems) (ligand, UniProt P21275 293-408, looked up)
chain: SPKHHPQRSRKKNKNCRRHSLYVDFSDVGWNDWIVAPPGYQAFYCHGDCPFPLADHLNSTNHAIVQTLVNSVNSSIPKACCVPTELSAISMLYLDEYDKVVLKNYQEMVVEGCGCR

binding result [6]: binds
B5: recombinant mouse BMP-2 (Invitrogen) (ligand, UniProt P21274 281-394, looked up)
chain: QAKHKQRKRLKSSCKRHPLYVDFSDVGWNDWIVAPPGYHAFYCHGECPFPLADHLNSTNHAIVQTLVNSVNSKIPKACCVPTELSAISMLYLDENEKVVLKNYQDMVVEGCGCR
